In article PMC11980582, “The human microbiome-derived antimicrobial lugdunin self-regulates its biosynthesis by a feed-forward mechanism”:

What was measured:
[1] = test system: T1, LugJ (Staphylococcus lugdunensis IVK28), ORF:22db99f4; test: EMSA; conditions: 10 mM Tris/HCl pH 7.4, 10 mM NaCl (LugJ) or 100 mM NaCl (LugR), 0.1 mg/mL BSA, 1 mM DTT, 1 mM EDTA, 10% glycerol, 30 min at 25 C, 20 ul; 5% native PAGE
T1 sequence: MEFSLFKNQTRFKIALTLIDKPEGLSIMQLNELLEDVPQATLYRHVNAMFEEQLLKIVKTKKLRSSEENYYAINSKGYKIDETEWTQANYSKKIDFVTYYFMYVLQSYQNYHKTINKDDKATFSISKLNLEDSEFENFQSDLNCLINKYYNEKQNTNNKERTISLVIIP

[2] = test system: T1, LugJ (Staphylococcus lugdunensis IVK28), ORF:22db99f4; test: competition; conditions: 10 mM Tris/HCl pH 7.4, 10 mM NaCl (LugJ) or 100 mM NaCl (LugR), 0.1 mg/mL BSA, 1 mM DTT, 1 mM EDTA, 10% glycerol, 30 min at 25 C, 20 ul; 5% native PAGE
[3] = biological target: T2, LugR (Staphylococcus lugdunensis IVK28, UniProt A0A292DID1 1-196); test: competition; 2 uM LugR; 50 or 100 ng competitor vs PlugR; 10 mM Tris/HCl pH 7.4, 10 mM NaCl (LugJ) or 100 mM NaCl (LugR), 0.1 mg/mL BSA, 1 mM DTT, 1 mM EDTA, 10% glycerol, 30 min at 25 C, 20 ul; 5% native PAGE; conditions: protein: recombinant; tags: 8xHis (N-terminal, pET-28a derived); chain copies: 2; label: none; blunt
T2 sequence: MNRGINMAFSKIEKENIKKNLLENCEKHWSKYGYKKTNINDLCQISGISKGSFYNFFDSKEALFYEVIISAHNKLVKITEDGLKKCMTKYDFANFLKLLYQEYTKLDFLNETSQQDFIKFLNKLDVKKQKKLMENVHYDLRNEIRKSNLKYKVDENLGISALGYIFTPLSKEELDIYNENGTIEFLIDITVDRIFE

**Q.** “ACATAACACCTCACTTTATACATAATAATTGATTTTTAAATAAATGTACAGTAACATTATCATTATCAATAATGATAATGGAGGGTGAAAATG (double strand) [PlugI promoter fragment]” was tested. Which binding [1] did it give?
**A.** The binding was “binds”.

**Q.** For “ACATAACACCTCACTTTATACATAATAATTGATTTTTAAATAAATGTACAGTAACATTATCATTATCAATAATGATAATGGAGGGTGAAAATG (double strand) [cold PlugI]”, which binding [2] is on record?
**A.** Its binding is “binds”.

B1: PallugR native (dsDNA)
DNA 1: GATAAAAGTGACTAGAAAAATTTATTTGGTCATAAATGAATAG
DNA 2: CTATTCATTTATGACCAAATAAATTTTTCTAGTCACTTTTATC
**Q.** Does B1 bind [3]?
**A.** Result: binds
